Measured values reported in EP3854411A1 (Rise Biopharmaceuticals, Inc. (Beijing), dated 2021).

Key:
CXCR1 = target: T1, CXCR1 (UniProt P25024 1-350, limits assumed); experiment: indirect ELISA, ONCO P8-CXCR1 complex formation
T1 construct: The receptor preparation used in the ELISA is not described; also called IL-8R
T1 sequence (looked up): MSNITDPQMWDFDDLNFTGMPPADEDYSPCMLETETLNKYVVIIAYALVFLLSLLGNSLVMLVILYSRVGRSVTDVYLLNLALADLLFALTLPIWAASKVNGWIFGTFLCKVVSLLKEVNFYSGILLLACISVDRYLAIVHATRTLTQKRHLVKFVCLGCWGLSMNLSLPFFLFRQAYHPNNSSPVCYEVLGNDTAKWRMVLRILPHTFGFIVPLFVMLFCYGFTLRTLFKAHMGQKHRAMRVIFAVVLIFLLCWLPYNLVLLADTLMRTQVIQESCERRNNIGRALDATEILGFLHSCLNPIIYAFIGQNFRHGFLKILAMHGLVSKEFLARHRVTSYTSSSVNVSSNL

CXCR2 = target: T2, CXCR2 (UniProt P25025 1-360, limits assumed); experiment: indirect ELISA, ONCO P8-CXCR2 complex formation
T2 construct: The receptor preparation used in the ELISA is not described; also called IL-8R
T2 sequence (looked up): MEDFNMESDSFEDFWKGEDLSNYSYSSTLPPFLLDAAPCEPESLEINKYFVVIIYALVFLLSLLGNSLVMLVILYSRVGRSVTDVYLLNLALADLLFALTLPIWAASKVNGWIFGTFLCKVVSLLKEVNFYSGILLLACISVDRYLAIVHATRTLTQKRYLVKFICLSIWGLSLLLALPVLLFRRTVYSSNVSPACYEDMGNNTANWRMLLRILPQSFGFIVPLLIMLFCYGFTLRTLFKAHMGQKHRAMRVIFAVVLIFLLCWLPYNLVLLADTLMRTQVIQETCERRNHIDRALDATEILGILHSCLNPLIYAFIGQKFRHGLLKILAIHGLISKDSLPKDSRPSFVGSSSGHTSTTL

- Kd (CXCR1): 286 nM
- Kd (CXCR2): 139 nM
B1: ONCO P-8 (peptide)
chain: GSKELRCQCIRSYSKPFHPKFIKELRVIPASQFCANTEIIVKLSDGRELCLDPKENWVQRVVEKFLKRAENS
notes: also called chemokine receptor antagonistic modified peptide
